Results published in the supplement of paper PMC5998384.

Tests used:
[1] = system: HeLa Kyoto; experiment: solubility in G1/S (NP-40 vs SDS abundance) (log2 ratio); higher = more soluble; conditions: cell cycle stage: G1/S
[2] = system: HeLa Kyoto; experiment: solubility change mitosis vs G1/S (difference of NP-40 vs SDS log2 ratios) (log2 ratio difference); higher = more soluble in mitosis
[3] = system: HeLa Kyoto; experiment: thermal stability score vs G1/S (z-score of summed log2 fold changes over temperatures); higher = more thermally stable than in G1/S
[4] = cell cycle stage: early G1 (4.5 h after nocodazole release)
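Throughout, for solubility change mitosis vs G1/S (difference of NP-40 vs SDS log2 ratios): synchronized HeLa Kyoto cells (double thymidine block for G1/S, nocodazole release for mitosis), protein amounts in NP-40 versus SDS lysates quantified by mass spectrometry, three biological replicates.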
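Throughout, for solubility in G1/S (NP-40 vs SDS abundance): HeLa Kyoto cells arrested at G1/S by double thymidine block, proteins quantified by TMT10plex mass spectrometry in mild NP-40 versus SDS extracts, three biological replicates.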
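Throughout, for thermal stability score vs G1/S (z-score of summed log2 fold changes over temperatures): synchronized HeLa Kyoto cells, proteins quantified by TMT10plex mass spectrometry, three biological replicates, mitosis taken 0.5 h after nocodazole release, G1/S directly after double thymidine block.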

Sequence of WWP2 (chain, as listed by the source): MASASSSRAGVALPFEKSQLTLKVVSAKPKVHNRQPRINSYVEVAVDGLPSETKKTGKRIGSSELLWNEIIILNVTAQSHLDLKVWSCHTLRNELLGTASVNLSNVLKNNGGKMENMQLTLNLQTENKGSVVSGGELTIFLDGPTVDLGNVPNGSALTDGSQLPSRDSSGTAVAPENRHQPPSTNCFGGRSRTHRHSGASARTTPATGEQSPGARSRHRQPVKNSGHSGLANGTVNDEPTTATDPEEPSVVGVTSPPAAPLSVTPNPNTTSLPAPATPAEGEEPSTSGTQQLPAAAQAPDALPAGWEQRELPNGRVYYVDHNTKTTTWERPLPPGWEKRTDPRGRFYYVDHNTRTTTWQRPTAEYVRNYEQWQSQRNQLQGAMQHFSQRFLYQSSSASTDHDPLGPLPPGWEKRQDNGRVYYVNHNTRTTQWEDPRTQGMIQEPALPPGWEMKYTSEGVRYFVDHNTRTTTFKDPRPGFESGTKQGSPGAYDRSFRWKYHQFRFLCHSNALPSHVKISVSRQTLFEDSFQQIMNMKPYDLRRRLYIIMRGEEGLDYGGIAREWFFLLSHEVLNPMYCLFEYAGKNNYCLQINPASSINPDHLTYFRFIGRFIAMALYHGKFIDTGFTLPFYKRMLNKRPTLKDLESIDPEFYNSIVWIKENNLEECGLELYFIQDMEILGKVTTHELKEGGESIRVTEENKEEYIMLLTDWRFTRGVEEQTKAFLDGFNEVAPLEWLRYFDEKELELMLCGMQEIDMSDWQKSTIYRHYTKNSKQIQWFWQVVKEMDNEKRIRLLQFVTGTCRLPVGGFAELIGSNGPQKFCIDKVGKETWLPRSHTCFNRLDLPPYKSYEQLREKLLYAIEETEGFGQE

| Substance | solubility in G1/S (log2) [1] | solubility change mitosis (log2) [2] | thermal stability score [3, 4] | thermal stability score ([3]; cell cycle stage: mitosis) |
| --- | --- | --- | --- | --- |
| MEVRKLSISWQFLIVLVLILQILSALDFDPYRVLGVSRTASQADIKKAYKKLAREWHPDKNKDPGAEDKFIQISKAYEILSNEEKRSNYDQYGDAGENQGYQKQQQQREYRFRHFHENFYFDESFFHFPFNSERRDSIDEKYLLHFSHYVNEVVPDSFKKPYLIKITSDWCFSCIHIEPVWKEVIQELEELGVGIGVVHAGYERRLAHHLGAHSTPSILGIINGKISFFHNAVVRENLRQFVESLLPGNLVEKVTNKNYVRFLSGWQQENKPHVLLFDQTPIVPLLYKLTAFAYKDYLSFGYVYVGLRGTEEMTRRYNINIYAPTLLVFKEHINRPADVIQARGMKKQIIDDFITRNKYLLAARLTSQKLFHELCPVKRSHRQRKYCVVLLTAETTKLSKPFEAFLSFALANTQDTVRFVHVYSNRQQEFADTLLPDSEAFQGKSAVSILERRNTAGRVVYKTLEDPWIGSESDKFILLGYLDQLRKDPALLSSEAVLPDLTDELAPVFLLRWFYSASDYISDCWDSIFHNNWREMMPLLSLIFSALFILFGTVIVQAFSDSNDERESSPPEKEEAQEKTGKTEPSFTKENSSKIPKKGFVEVTELTDVTYTSNLVRLRPGHMNVVLILSNSTKTSLLQKFALEVYTFTGSSCLHFSFLSLDKHREWLEYLLEFAQDAAPIPNQYDKHFMERDYTGYVLALNGHKKYFCLFKPQKTVEEEEAIGSCSDVDSSLYLGESRGKPSCGLGSRPIKGKLSKLSLWMERLLEGSLQRFYIPSWPELD [DNAJC16] | -0.398 | 1.48e-05 | -0.236 | -0.485 |
| MDLPVDEWKSYLLQKWASLPTSVQVTISTAETLRDIFLHSSSLLQPEDELFLKRLSKGYLVGKDSDAPLFYREEGNKKFQEKDYTGAAVLYSKGVSHSRPNTEDMSLCHANRSAALFHLGQYETCLKDINRAQTHGYPERLQPKIMLRKAECLVALGRLQEASQTISDLERNFTATPALADVLPQTLQRNLHRLKMKMQEKDSLTESFPAALAKTLEDAALREENEQLSNASSSIGLCVDPLKGRCLVATKDILPGELLVQEDAFVSVLNPGELPPPHHGLDSKWDTRVTNGDLYCHRCLKHTLATVPCDGCSYAKYCSQECLQQAWELYHRTECPLGGLLLTLGVFCHIALRLTLLVGFEDVRKIITKLCDKISNKDICLPESNNQVKTLNYGLGESEKNGNIVETPIPGCDINGKYENNYNAVFNLLPHTENHSPEHKFLCALCVSALCRQLEAASLQAIPTERIVNSSQLKAAVTPELCPDVTIWGVAMLRHMLQLQCNAQAMTTIQHTGPKGSIVTDSRQVRLATGIFPVISLLNHSCSPNTSVSFISTVATIRASQRIRKGQEILHCYGPHKSRMGVAERQQKLRSQYFFDCACPACQTEAHRMAAGPRWEAFCCNSCGAPMQGDDVLRCGSRSCAESAVSRDHLVSRLQDLQQQVRVAQKLLRDGELERAVQRLSGCQRDAESFLWAEHAVVGEIADGLARACAALGDWQKSATHLQRSLYVVEVRHGPSSVEMGHELFKLAQIFFNGFAVPEALSTIQKAEEVLSLHCGPWDDEIQELQKMKSCLLDLPPTPVGPAL [SMYD4] | -0.119 | 0.000145 | 0.716 | 0.631 |
| MAVSERRGLGRGSPAEWGQRLLLVLLLGGCSGRIHQLALTGEKRADIQLNSFGFYTNGSLEVELSVLRLGLREAEEKSLLVGFSLSRVRSGRVRSYSTRDFQDCPLQKNSSSFLVLFLINTKDLQVQVRKYGEQKTLFIFPGLLPEAPSKPGLPKPQATVPRKVDGGGTSAASKPKSTPAVIQGPSGKDKDLVLGLSHLNNSYNFSFHVVIGSQAEEGQYSLNFHNCNNSVPGKEHPFDITVMIREKNPDGFLSAAEMPLFKLYMVMSACFLAAGIFWVSILCRNTYSVFKIHWLMAALAFTKSISLLFHSINYYFINSQGHPIEGLAVMYYIAHLLKGALLFITIALIGSGWAFIKYVLSDKEKKVFGIVIPMQVLANVAYIIIESREEGASDYVLWKEILFLVDLICCGAILFPVVWSIRHLQDASGTDGKVAVNLAKLKLFRHYYVMVICYVYFTRIIAILLQVAVPFQWQWLYQLLVEGSTLAFFVLTGYKFQPTGNNPYLQLPQEDEEDVQMEQVMTDSGFREGLSKVNKTASGRELL [GPR108] | 0.04 | -0.16 | -3.36 | -3.48 |
| MSTEGGGRRCQAQVSRRISFSASHRLYSKFLSDEENLKLFGKCNNPNGHGHNYKVVVTVHGEIDPATGMVMNLADLKKYMEEAIMQPLDHKNLDMDVPYFADVVSTTENVAVYIWDNLQKVLPVGVLYKVKVYETDNNIVVYKGE [PTS] | 0.154 | -0.182 | -0.38 | -1.87 |
| KIAA1671 | -1.28 | 1.05 | -0.863 | -1.71 |
| MTTAQRDSLLWKLAGLLRESGDVVLSGCSTLSLLTPTLQQLNHVFELHLGPWGPGQTGFVALPSHPADSPVILQLQFLFDVLQKTLSLKLVHVAGPGPTGPIKIFPFKSLRHLELRGVPLHCLHGLRGIYSQLETLICSRSLQALEELLSACGGDFCSALPWLALLSANFSYNALTALDSSLRLLSALRFLNLSHNQVQDCQGFLMDLCELHHLDISYNRLHLVPRMGPSGAALGVLILRGNELRSLHGLEQLRNLRHLDLAYNLLEGHRELSPLWLLAELRKLYLEGNPLWFHPEHRAATAQYLSPRARDAATGFLLDGKVLSLTDFQTHTSLGLSPMGPPLPWPVGSTPETSGGPDLSDSLSSGGVVTQPLLHKVKSRVRVRRASISEPSDTDPEPRTLNPSPAGWFVQQHPELELMSSFRERFGRNWLQYRSHLEPSGNPLPATPTTSAPSAPPASSQGPDTAPRPSPPQEEARGPQESPQKMSEEVRAEPQEEEEEKEGKEEKEEGEMVEQGEEEAGEEEEEEQDQKEVEAELCRPLLVCPLEGPEGVRGRECFLRVTSAHLFEVELQAARTLERLELQSLEAAEIEPEAQAQRSPRPTGSDLLPGAPILSLRFSYICPDRQLRRYLVLEPDAHAAVQELLAVLTPVTNVAREQLGEARDLLLGRFQCLRCGHEFKPEEPRMGLDSEEGWRPLFQKTESPAVCPNCGSDHVVLLAVSRGTPNRERKQGEQSLAPSPSASPVCHPPGHGDHLDRAKNSPPQAPSTRDHGSWSLSPPPERCGLRSVDHRLRLFLDVEVFSDAQEEFQCCLKVPVALAGHTGEFMCLVVVSDRRLYLLKVTGEMREPPASWLQLTLAVPLQDLSGIELGLAGQSLRLEWAAGAGRCVLLPRDARHCRAFLEELLDVLQSLPPAWRNCVSATEEEVTPQHRLWPLLEKDSSLEARQFFYLRAFLVEGPSTCLVSLLLTPSTLFLLDEDAAGSPAEPSPPAASGEASEKVPPSGPGPAVRVREQQPLSSLSSVLLYRSAPEDLRLLFYDEVSRLESFWALRVVCQEQLTALLAWIREPWEELFSIGLRTVIQEALALDR [STK11IP] | -0.0528 | -0.0941 | -0.272 | -1.04 |
| WWP2 | -0.136 | -0.0544 | 0.284 | -1.96 |
| MKRRNADCSKLRRPLKRNRITEGIYGSTFLYLKFLVVWALVLLADFVLEFRFEYLWPFWLFIRSVYDSFRYQGLAFSVFFVCVAFTSNIICLLFIPIQWLFFAASTYVWVQYVWHTERGVCLPTVSLWILFVYIEAAIRFKDLKNFHVDLCRPFAAHCIGYPVVTLGFGFKSYVSYKMRLRKQKEVQKENEFYMQLLQQALPPEQQMLQKQEKEAEEAAKGLPDMDSSILIHHNGGIPANKKLSTTLPEIEYREKGKEKDKDAKKHNLGINNNNILQPVDSKIQEIEYMENHINSKRLNNDLVGSTENLLKEDSCTASSKNYKNASGVVNSSPRSHSATNGSIPSSSSKNEKKQKCTSKSPSTHKDLMENCIPNNQLSKPDALVRLEQDIKKLKADLQASRQVEQELRSQISSLSSTERGIRSEMGQLRQENELLQNKLHNAVQMKQKDKQNISQLEKKLKAEQEARSFVEKQLMEEKKRKKLEEATAARAVAFAAASRGECTETLRNRIRELEAEGKKLTMDMKVKEDQIRELELKVQELRKYKENEKDTEVLMSALSAMQDKTQHLENSLSAETRIKLDLFSALGDAKRQLEIAQGQILQKDQEIKDLKQKIAEVMAVMPSITYSAATSPLSPVSPHYSSKFVETSPSGLDPNASVYQPLKK [TMEM57] | -0.363 | 0.256 | -1.41 | -2.47 |
| MATLVELPDSVLLEIFSYLPVRDRIRISRVCHRWKRLVDDRWLWRHVDLTLYTMRPKVMWHLLRRYMASRLHSLRMGGYLFSGSQAPQLSPALLRALGQKCPNLKRLCLHVADLSMVPITSLPSTLRTLELHSCEISMAWLHKQQDPTVLPLLECIVLDRVPAFRDEHLQGLTRFRALRSLVLGGTYRVTETGLDAGLQELSYLQRLEVLGCTLSADSTLLAISRHLRDVRKIRLTVRGLSAPGLAVLEGMPALESLCLQGPLVTPEMPSPTEILSSCLTMPKLRVLELQGLGWEGQEAEKILCKGLPHCMVIVRACPKESMDWWM [FBXL12] | -0.129 | -0.183 | -0.861 | -0.543 |
| BLM | -0.848 | 0.632 | -0.277 | -0.894 |
| MAAVVAATALKGRGARNARVLRGILAGATANKASHNRTRALQSHSSPEGKEEPEPLSPELEYIPRKRGKNPMKAVGLAWYSLYTRTWLGYLFYRQQLRRARNRYPKGHSKTQPRLFNGVKVLPIPVLSDNYSYLIIDTQAQLAVAVDPSDPRAVQASIEKEGVTLVAILCTHKHWDHSGGNRDLSRRHRDCRVYGSPQDGIPYLTHPLCHQDVVSVGRLQIRALATPGHTQGHLVYLLDGEPYKGPSCLFSGDLLFLSGCGRTFEGNAETMLSSLDTVLGLGDDTLLWPGHEYAEENLGFAGVVEPENLARERKMQWVQRQRLERKGTCPSTLGEERSYNPFLRTHCLALQEALGPGPGPTGDDDYSRAQLLEELRRLKDMHKSK [PNKD] | -0.0413 | -0.135 | 0.265 | -0.394 |
| MDANSKDKPPETKESAMNNAGNASFILGTGKIVTPQKHAELPPNPCTPDTFKSPLNFSTVTVEQLGITPESFVRNSAGKSSSYLKKCRRRSAVGARGSPETNHLIRFIARQQNIKNARKSPLAQDSPSQGSPALYRNVNTLRERISAFQSAFHSIKENEKMTGCLEFSEAGKESEMTDLTRKEGLSACQQSGFPAVLSSKRRRISYQRDSDENLTDAEGKVIGLQIFNIDTDRACAVETSVDLSEISSKLGSTQSGFLVEESLPLSELTETSNALKVADCVVGKGSSDAVSPDTFTAEVSSDAVPDVRSPATPACRRDLPTPKTFVLRSVLKKPSVKMCLESLQEHCNNLYDDDGTHPSLISNLPNCCKEKEAEDEENFEAPAFLNMRKRKRVTFGEDLSPEVFDESLPANTPLRKGGTPVCKKDFSGLSSLLLEQSPVPEPLPQPDFDDKGENLENIEPLQVSFAVLSSPNKSSISETLSGTDTFSSSNNHEKISSPKVGRITRTSNRRNQLVSVVEESVCNLLNTEVQPCKEKKINRRKSQETKCTKRALPKKSQVLKSCRKKKGKGKKSVQKSLYGERDIASKKPLLSPIPELPEVPEMTPSIPSIRRLGSGYFSSNGKLEEVKTPKNPVKRKDLLRHDPDLHMHQGYDKYDVSEFCSYIKSSSSLGNATSDEDPNTNIMNINENKNIPKAKNKSESENEPKAGTDSPVSCASVTEERVASDSPKPALTLQQGQEFSAGGQNAENLCQFFKISPDLNIKCERKDDFLGAAEGKLQCNRLMPNSQKDCHCLGDVLIENTKESKSQSEDLGRKPMESSSVVSCRDRKDRRRSMCYSDGRSLHLEKNGNHTPSSSVGSSVEISLENSELFKDLSDAIEQTFQRRNSETKVRRSTRLQKDLENEGLVWISLPLPSTSQKAKRRTICTFDSSGFESMSPIKETVSSRQKPQMAPPVSDPENSQGPAAGSSDEPGKRRKSFCISTLANTKATSQFKGYRRRSSLNGKGESSLTALERIEHNGERKQ [CDCA2] | -0.581 | 0.243 | 0.00387 | -1.54 |
